Columns and labels:
human serum albumin = molecular target: T1, human serum albumin (human, UniProt P02768 25-609); assay: size exclusion chromatography coupled to static light scattering
T1 construct: For SEC-MALS purified from CSL Behring 20% solution; also called HSA; SA (human)

human VEGF-A = molecular target: T2, human VEGF-A (human, UniProt P15692-4 27-191, limits assumed); assay: SPR (ProteOn)
T2 construct: Recombinant, bought or produced in CHO or Pichia pastoris; also called hVEGF-A
Procedure: SPR was measured using a ProteOn instrument (BioRad) and measurement was performed according standard procedures known to the person skilled in the art.

T2 sequence (P15692 other isoform, or with tags, fused parts or gaps limits assumed): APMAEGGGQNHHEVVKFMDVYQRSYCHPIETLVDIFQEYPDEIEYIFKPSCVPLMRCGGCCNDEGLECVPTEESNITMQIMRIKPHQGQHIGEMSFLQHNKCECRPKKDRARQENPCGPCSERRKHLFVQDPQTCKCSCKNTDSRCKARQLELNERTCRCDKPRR
T1 sequence (P02768 25-609 limits assumed): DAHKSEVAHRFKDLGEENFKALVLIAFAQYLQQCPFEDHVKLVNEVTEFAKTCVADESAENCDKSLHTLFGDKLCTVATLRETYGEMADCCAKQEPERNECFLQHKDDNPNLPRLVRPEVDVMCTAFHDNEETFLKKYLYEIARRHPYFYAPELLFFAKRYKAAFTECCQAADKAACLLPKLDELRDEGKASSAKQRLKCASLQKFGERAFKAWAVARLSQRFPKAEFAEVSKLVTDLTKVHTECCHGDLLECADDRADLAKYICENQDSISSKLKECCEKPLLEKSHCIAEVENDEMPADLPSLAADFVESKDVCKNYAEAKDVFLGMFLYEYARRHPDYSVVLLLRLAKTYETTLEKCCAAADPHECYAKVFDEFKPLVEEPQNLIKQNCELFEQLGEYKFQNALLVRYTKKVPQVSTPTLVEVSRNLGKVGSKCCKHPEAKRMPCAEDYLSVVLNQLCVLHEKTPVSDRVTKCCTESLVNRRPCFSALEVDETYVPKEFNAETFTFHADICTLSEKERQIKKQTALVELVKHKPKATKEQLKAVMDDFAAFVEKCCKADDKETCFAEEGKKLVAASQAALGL

Binder	binding result (human serum albumin)	binding result (human VEGF-A)	further results
Protein #110 (designed binder) MRGSHHHHHHGSDLGKKLLEAARAGQDDEVRELLKAGADVNAKDYFSHTPLHLAARNGHLKIVEVLLKAGADVNAKDFAGKTPLHLAANEGHLEIVEVLLKAGADVNAQDIFGKTPADIAADAGHEDIAEVLQKAAGSPTPTPTTPTPTPTTPTPTPTGSDLGKKLLEAARAGQDDEVRELLKAGADVNAKDKSGNTPLHLAARFGHLEIVEFLLKAGADVNAKDETGKTPLHLAAIWGHLEIVEVLLKAGADVNAKDLYGRTPLHLAAKLRHLEIVEVLLKAGADVNAQDKFGKTAFDISIDNGNEDLAEILQKAAGSPTPTPTTPTPTPTTPTPTPTGSDLDKKLLEAARAGQDDEVRELLKAGADVNALDQIGWTPLHLAANYGHLEIVEVLLKAGADVNAKDLWGQTPLHLAAWKGHLEIVEVLLKAGADVNAKDTDGLTPLHLAAIRGHLEIVEVLLKAGADVNAQDKSGKTPADLAADAGHEDIAEVLQKAAGSPTPTPTTPTPTPTTPTPTPTGSDLGKKLLEAARAGQDDEVRELLKAGADVNAKDYFSHTPLHLAARNGHLKIVEVLLKAGADVNAKDFAGKTPLHLAANEGHLEIVEVLLKAGADVNAQDIFGKTPADIAADAGHEDIAEVLQKAA	binds		
Protein #97 (designed binder) MRGSHHHHHHGSDLGKKLLEAARAGQDDEVRILMANGADVNAKDYFSHTPLHLAARNGHLKIVEVLLKAGADVNAKDFAGKTPLHLAANDGHLEIVEVLLKHGADVNAQDIFGKTPADIAADAGHEDIAEVLQKLGSPTPTPTTPTPTPTTPTPTPTGSRSDLGKKLLEAARAGQDDEVRILLKAGADVNAKDRYGDTPLHLAADAGHLKIVEVLLKAGADVNAEDYFGNTPLHLAASAGHLEIVEVLLKAGADVNAKDDAGNTPLHLAANTGHLKIVEVLLKAGADVNAQDKSGKTPADLAADAGHEDIAEVLQKLGSPTPTPTTPTPTPTTPTPTPTGSRSDLDKKLLEAARAGQDDEVRILLKAGADVNAKDYLGWTPLHLAAHEGHLEIVEVLLKAGADVNAKDVSGYTPLHLAAADGHLEIVEVLLKAGADVNAKDNTGWTPLHLSADLGHLEIVEVLLKAGADVNAQDKFGKTAFDISIDNGNEDLAEILQKLGSPTPTPTTPTPTPTTPTPTPTGSRSDLGKKLLEAARAGQDDEVRILMANGADVNAKDYFSHTPLHLAARNGHLKIVEVLLKAGADVNAKDFAGKTPLHLAANDGHLEIVEVLLKHGADVNAQDIFGKTPADIAADAGHEDIAEVLQKLN	binds		
Protein #14 (designed binder) MRGSHHHHHHGSDLGKKLLEAARAGQDDEVRILMANGADVNTADSTGWTPLHLAAPWGHPEIVEVLLKNGADVNAHDYQGWTPLHLAATLGHLEIVEVLLKHGADVNAQDKFGKTAFDISIDNGNEDLAEILQKAA		binds	
Protein #16 (designed binder) MRGSHHHHHHGSDLDKKLLEAARAGQDDEVRILMANGADVNAKDSTGYTPLHLAAPWGHLEIVEVLLKAGADVNAKDYQGWTPLHLAAAVGHLEIVEVLLKAGADVNAQDKSGKTPADLAADAGHEDIAEVLQKAA			Kd (human VEGF-A): 0.141 nM
Protein #12 (designed binder) MRGSHHHHHHGSDLGKKLLEAARAGQDDEVRILMANGADVNAFDWMGWTPLHLAAHEGHLEIVEVLLKNGADVNATDVSGYTPLHLAAADGHLEIVEVLLKHGADVNTKDNTGWTPLHLSADLGHLEIVEVLLKNGADVNAQDKFGKTAFDISIDNGNEDLAEILQKAA			Kd (human VEGF-A): 0.094 nM
Protein #13 (designed binder) MRGSHHHHHHGSDLDKKLLEAARAGQDDEVRILLKAGADVNAKDYLGWTPLHLAAHEGHLEIVEVLLKAGADVNAKDVSGYTPLHLAAADGHLEIVEVLLKAGADVNAKDNTGWTPLHLSADLGHLEIVEVLLKAGADVNAQDKFGKTAFDISIDNGNEDLAEILQKAA			Kd (human VEGF-A): 0.096 nM

The next lines start with results.

binding result (human serum albumin)	binding result (human VEGF-A)	Binder	further results
	binds	Protein #15 (designed binder) MRGSHHHHHHGSDLGKKLLEAARAGQDDEVRILMANGADVNTADSTGWTPLHLAVPWGHLEIVEVLLKYGADVNAKDFQGWTPLHLAAAIGHQEIVEVLLKNGADVNAQDKFGKTAFDISIDNGNEDLAEILQKAA	
	binds	Protein #22 (designed binder) MRGSHHHHHHGSDLDKKLLEAARAGQDDEVRILMANGADVNAKDSTGWTPLHLAAPWGHLEIVEVLLKAGADVNAKDFQGWTPLHLAAAVGHLEIVEVLLKAGADVNAQDKFGKTAFDISIDNGNEDLAEILQKAA	
	binds	Protein #17 (designed binder) MRGSHHHHHHGSDLGKKLLEAARAGQDDEVRILMANGADVNARDSTGWTPLHLAAPWGHPEIVEVLLKNGADVNAADFQGWTPLHLAAAVGHLEIVEVLLKHGADVNAQDKFGKTAFDISIDNGNEDLAEILQKAA	
binds		Protein #109 (designed binder) MRGSHHHHHHGSDLGKKLLEAARAGQDDEVRILMANGADVNAKDYFSHTPLHLAARNGHLKIVEVLLKAGADVNAKDFAGKTPLHLAANDGHLEIVEVLLKHGADVNAQDIFGKTPADIAADAGHEDIAEVLQKLGSPTPTPTTPTPTPTTPTPTPTGSRSDLGKKLLEAARAGQDDEVRILMANGADVNAKDYFSHTPLHLAARNGHLKIVEVLLKAGADVNAKDFAGKTPLHLAANDGHLEIVEVLLKHGADVNAQDIFGKTPADIAADAGHEDIAEVLQKLGSPTPTPTTPTPTPTTPTPTPTGSRSDLGKKLLEAARAGQDDEVRILMANGADVNAKDKDGYTPLHLAAREGHLEIVEVLLKAGADVNAKDKDGYTPLHLAAREGHLEIVEVLLKAGADVNAQDKFGKTAFDISIDNGNEDLAEILQKLGSPTPTPTTPTPTPTTPTPTPTGSRSDLGKKLLEAARAGQDDEVRILMANGADVNAKDKDGYTPLHLAAREGHLEIVEVLLKAGADVNAKDKDGYTPLHLAAREGHLEIVEVLLKAGADVNAQDKFGKTAFDISIDNGNEDLAEILQKLN	
binds		Protein #102 (designed binder) MRGSHHHHHHGSDLGKKLLEAARAGQDDEVRELLKAGADVNAKDYFSHTPLHLAARNGHLKIVEVLLKAGADVNAKDFAGKTPLHLAANDGHLEIVEVLLKAGADVNAQDIFGKTPADIAADAGHEDIAEVLQKAAGSPTPTPTTPTPTPTTPTPTPTGSDLGKKLLEAARAGQDDEVRILLKAGADVNAKDRYGDTPLHLAADIGHLEIVEVLLKAGADVNAEDYFGNTPLHLAASYGHLEIVEVLLKAGADVNAKDDYGNTPLHLAANTGHLEIVEVLLKAGADVNAQDKSGKTPADLAADAGHEDIAEVLQKAAGSPTPTPTTPTPTPTTPTPTPTGSDLDKKLLEAARAGQDDEVRILLKAGADVNAKDSTGWTPLHLAAPWGHPEIVEVLLKAGADVNAKDFQGWTPLHLAAAVGHLEIVEVLLKAGADVNAQDKSGKTPADLAADAGHEDIAEVLQKAAGSPTPTPTTPTPTPTTPTPTPTGSDLGKKLLEAARAGQDDEVRELLKAGADVNAKDYFSHTPLHLAARNGHLKIVEVLLKAGADVNAKDFAGKTPLHLAANDGHLEIVEVLLKAGADVNAQDIFGKTPADIAADAGHEDIAEVLQKAA	
	binds	Protein #21 (designed binder) MRGSHHHHHHGSDLDKKLLEAARAGQDDEVRILLKAGADVNAKDSTGWTPLHLAAPWGHPEIVEVLLKAGADVNAKDYQGWTPLHLAAAVGHLEIVEVLLKAGADVNAQDKSGKTPADLAADAGHEDIAEVLQKAA	
